Source: publication PMC4527729, “The Inner Membrane Protein PilG Interacts with DNA and the Secretin PilQ in Transformation”

Assays:
Conditions in all cases: protein: recombinant; tags: C-terminal 6xHis; label: 32P end label; blunt
PilG1-178 = PilG1-178 (Neisseria meningitidis MC58, UniProt Q7DDR1 1-178); assay: EMSA; 5 mM MgCl2; DUS+ duplex assigned by Table 2 EMSA footnote; Optimized EMSA: 50 mM HEPES pH 7.5, 100 mM NaCl, 5 mM MgCl2, 1 mM DTT, 10% glycerol, 0.05% DDM, on ice 15 min, 0.45 nM DNA; first EMSA: 25 mM NaH2PO4 pH 8.0, 150 mM NaCl, 1 mM DTT, 10% glycerol, 0.05% DDM, on ice
PilG166-410 = PilG166-410 (Neisseria meningitidis MC58, UniProt Q7DDR1 166-410); assay: South-western; Optimized EMSA: 50 mM HEPES pH 7.5, 100 mM NaCl, 5 mM MgCl2, 1 mM DTT, 10% glycerol, 0.05% DDM, on ice 15 min, 0.45 nM DNA; first EMSA: 25 mM NaH2PO4 pH 8.0, 150 mM NaCl, 1 mM DTT, 10% glycerol, 0.05% DDM, on ice
PilG1-60 = PilG1-60 (Neisseria meningitidis MC58, UniProt Q7DDR1 1-60); assay: as above
PilG257-410 = PilG257-410 (Neisseria meningitidis MC58, UniProt Q7DDR1 257-410); assay: as above
PilG30-80 = PilG30-80 (Neisseria meningitidis MC58, UniProt Q7DDR1 30-80); assay: as above
PilG EEE39-41AAA = PilG EEE39-41AAA (Neisseria meningitidis MC58, UniProt Q7DDR1 1-410, E39A;E40A;E41A); assay: South-western; increased vs FL per text; Optimized EMSA: 50 mM HEPES pH 7.5, 100 mM NaCl, 5 mM MgCl2, 1 mM DTT, 10% glycerol, 0.05% DDM, on ice 15 min, 0.45 nM DNA; first EMSA: 25 mM NaH2PO4 pH 8.0, 150 mM NaCl, 1 mM DTT, 10% glycerol, 0.05% DDM, on ice
PilG RKK43-45AAA = PilG RKK43-45AAA (Neisseria meningitidis MC58, UniProt Q7DDR1 1-410, R43A;K44A;K45A); assay: EMSA; extrapolated; about 50% bound at 5 uM per text; Optimized EMSA: 50 mM HEPES pH 7.5, 100 mM NaCl, 5 mM MgCl2, 1 mM DTT, 10% glycerol, 0.05% DDM, on ice 15 min, 0.45 nM DNA; first EMSA: 25 mM NaH2PO4 pH 8.0, 150 mM NaCl, 1 mM DTT, 10% glycerol, 0.05% DDM, on ice
PilG1-80 = PilG1-80 (Neisseria meningitidis MC58, UniProt Q7DDR1 1-80); assay: EMSA; 5 mM MgCl2; Optimized EMSA: 50 mM HEPES pH 7.5, 100 mM NaCl, 5 mM MgCl2, 1 mM DTT, 10% glycerol, 0.05% DDM, on ice 15 min, 0.45 nM DNA; first EMSA: 25 mM NaH2PO4 pH 8.0, 150 mM NaCl, 1 mM DTT, 10% glycerol, 0.05% DDM, on ice
PilG FL = PilG FL (Neisseria meningitidis MC58, UniProt Q7DDR1 1-410); assay: EMSA; optimized EMSA; R2 0.96?; Optimized EMSA: 50 mM HEPES pH 7.5, 100 mM NaCl, 5 mM MgCl2, 1 mM DTT, 10% glycerol, 0.05% DDM, on ice 15 min, 0.45 nM DNA; first EMSA: 25 mM NaH2PO4 pH 8.0, 150 mM NaCl, 1 mM DTT, 10% glycerol, 0.05% DDM, on ice
PilG SS62-63AA = PilG SS62-63AA (Neisseria meningitidis MC58, UniProt Q7DDR1 1-410, S62A;S63A); assay: South-western; same as FL; Optimized EMSA: 50 mM HEPES pH 7.5, 100 mM NaCl, 5 mM MgCl2, 1 mM DTT, 10% glycerol, 0.05% DDM, on ice 15 min, 0.45 nM DNA; first EMSA: 25 mM NaH2PO4 pH 8.0, 150 mM NaCl, 1 mM DTT, 10% glycerol, 0.05% DDM, on ice
PilG Q55A = PilG Q55A (Neisseria meningitidis MC58, UniProt Q7DDR1 1-410, Q55A); assay: as above

B1: HH7HH8 (dsDNA)
DNA 1: AACAACAACAAATGCCGTCTGAACCAACATGCCGTCTGAAAACAACAACAAC
DNA 2: GTTGTTGTTGTTTTCAGACGGCATGTTGGTTCAGACGGCATTTGTTGTTGTT
apparent K (half saturation) (PilG1-178): 269 nM | binding result (PilG166-410): no binding | binding result (PilG1-60): no binding | binding result (PilG257-410): no binding | binding result (PilG30-80): no binding | binding result (PilG EEE39-41AAA): binds | apparent K (half saturation) (PilG RKK43-45AAA): ~685 µM | apparent K (half saturation) (PilG1-80): 283 nM | apparent K (half saturation) (PilG FL): 1070 nM | binding result (PilG SS62-63AA): binds | binding result (PilG Q55A): binds
